Reference: patent publication JPH09322796A (dated 1997)

T1: Fas抗原 on the human lymphocyte cell line HPB−ALL (human, UniProt P25445 26-335)
T1 sequence (looked up): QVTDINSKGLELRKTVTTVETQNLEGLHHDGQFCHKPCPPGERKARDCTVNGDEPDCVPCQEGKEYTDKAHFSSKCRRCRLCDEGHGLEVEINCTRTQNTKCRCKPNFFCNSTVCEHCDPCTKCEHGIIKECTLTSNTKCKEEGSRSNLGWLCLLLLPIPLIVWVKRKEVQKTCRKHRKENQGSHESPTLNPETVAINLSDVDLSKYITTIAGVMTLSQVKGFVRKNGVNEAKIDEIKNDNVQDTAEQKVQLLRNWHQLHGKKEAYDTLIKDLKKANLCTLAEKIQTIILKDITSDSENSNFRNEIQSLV

B1: マウス抗ヒトFasモノクローナル抗体CH11 (mouse anti-human Fas monoclonal antibody CH11, purified from hybridoma culture supernatant) (antibody, mouse IgM)
heavy: EVQLQQSGPELVKPGASVKISCKASGYTFTDYNMHWVKQSHGKSLEWIGYIYPYNGGTGYNQKFKSKATLTVDNSSSTAYMELRSLTSEDSAVYYCARSYYAMDYWGQGTSVTVSSESQSFPNVFPLVSCESPLSDKNLVAMGCLARDFLPSTISFTWNYQNNTEVIQGIRTFPTLRTGGKYLATSQVLLSPKSILEGSDEYLVCKIHYGGKNRDLHVPIPAVAEMNPNVNVFVPPRDGFSGPAPRKSKLICEATNFTPKPITVSWLKDGKLVESGFTTDPVTIENKGSTPQTYKVISTLTISEIDWLNLNVYTCRVDHRGLTFLKNVSSTCAASPSTDILTFTIPPSFADIFLSKSANLTCLVSNLATYETLNISWASQSGEPLETKIKIMESHPNGTFSAKGVASVCVEDWNNRKEFVCTVTHRDLPSPQKKFISKPNEVHKHPPAVYLLPPAREQLNLRESATVTCLVKGFSPADISVQWLQRGQLLPQEKYVTSAPMPEPGAPGFYFTHSILTVTEEEWNSGETYTCVVGHEALPHLVTERTVDKSTGKPTLYNVSLIMSDTGGTCY
light: DVVMTQSPLSLPVSLGDQASISCRSSKSLVHSNGNTYLHWYLQKPGQSPKLLIYKVSNRFSGVPDRFSGSGSGTDFTLKISRVEAEDLGVYFCSQSTHVPPAFGGGTKLEIKRADAAPTVSIFPPSSEQLTSGGASVVCFLNNFYPKDINVKWKIDGSERQNGVLNSWTDQDSKDSTYSMSSTLTLTKDEYERHNSYTCEATHKTSTSPIVKSFNRNEC
chain: DDEATILADNKCMCTRVTSRIIPSTEDPNEDIVERNIRIVVPLNNRENISDPTSPLRRNFVYHLSDVCKKCDPVEVELEDQVVTATQSNICNEDDGVPETCYMYDRNKCYTTMVPLRYHGETKMVQAALTPDSCYPD
B2: pJEX004のみで形質転換したCOS−1細胞の培養上清[D] (CH11 J chain expressed alone) (other)
chain: DDEATILADNKCMCTRVTSRIIPSTEDPNEDIVERNIRIVVPLNNRENISDPTSPLRRNFVYHLSDVCKKCDPVEVELEDQVVTATQSNICNEDDGVPETCYMYDRNKCYTTMVPLRYHGETKMVQAALTPDSCYPD
B3: pHEX126のみで形質転換したCOS−1細胞の培養上清[B] (CH11 H chain expressed alone) (other)
heavy: EVQLQQSGPELVKPGASVKISCKASGYTFTDYNMHWVKQSHGKSLEWIGYIYPYNGGTGYNQKFKSKATLTVDNSSSTAYMELRSLTSEDSAVYYCARSYYAMDYWGQGTSVTVSSESQSFPNVFPLVSCESPLSDKNLVAMGCLARDFLPSTISFTWNYQNNTEVIQGIRTFPTLRTGGKYLATSQVLLSPKSILEGSDEYLVCKIHYGGKNRDLHVPIPAVAEMNPNVNVFVPPRDGFSGPAPRKSKLICEATNFTPKPITVSWLKDGKLVESGFTTDPVTIENKGSTPQTYKVISTLTISEIDWLNLNVYTCRVDHRGLTFLKNVSSTCAASPSTDILTFTIPPSFADIFLSKSANLTCLVSNLATYETLNISWASQSGEPLETKIKIMESHPNGTFSAKGVASVCVEDWNNRKEFVCTVTHRDLPSPQKKFISKPNEVHKHPPAVYLLPPAREQLNLRESATVTCLVKGFSPADISVQWLQRGQLLPQEKYVTSAPMPEPGAPGFYFTHSILTVTEEEWNSGETYTCVVGHEALPHLVTERTVDKSTGKPTLYNVSLIMSDTGGTCY
B4: 上清[E](pHEX126+pLEX004)に含まれる生産物 (recombinant CH11 H chain + L chain without J chain, COS-1 culture supernatant) (antibody)
heavy: EVQLQQSGPELVKPGASVKISCKASGYTFTDYNMHWVKQSHGKSLEWIGYIYPYNGGTGYNQKFKSKATLTVDNSSSTAYMELRSLTSEDSAVYYCARSYYAMDYWGQGTSVTVSSESQSFPNVFPLVSCESPLSDKNLVAMGCLARDFLPSTISFTWNYQNNTEVIQGIRTFPTLRTGGKYLATSQVLLSPKSILEGSDEYLVCKIHYGGKNRDLHVPIPAVAEMNPNVNVFVPPRDGFSGPAPRKSKLICEATNFTPKPITVSWLKDGKLVESGFTTDPVTIENKGSTPQTYKVISTLTISEIDWLNLNVYTCRVDHRGLTFLKNVSSTCAASPSTDILTFTIPPSFADIFLSKSANLTCLVSNLATYETLNISWASQSGEPLETKIKIMESHPNGTFSAKGVASVCVEDWNNRKEFVCTVTHRDLPSPQKKFISKPNEVHKHPPAVYLLPPAREQLNLRESATVTCLVKGFSPADISVQWLQRGQLLPQEKYVTSAPMPEPGAPGFYFTHSILTVTEEEWNSGETYTCVVGHEALPHLVTERTVDKSTGKPTLYNVSLIMSDTGGTCY
light: DVVMTQSPLSLPVSLGDQASISCRSSKSLVHSNGNTYLHWYLQKPGQSPKLLIYKVSNRFSGVPDRFSGSGSGTDFTLKISRVEAEDLGVYFCSQSTHVPPAFGGGTKLEIKRADAAPTVSIFPPSSEQLTSGGASVVCFLNNFYPKDINVKWKIDGSERQNGVLNSWTDQDSKDSTYSMSSTLTLTKDEYERHNSYTCEATHKTSTSPIVKSFNRNEC
B5: pLEX004のみで形質転換したCOS−1細胞の培養上清[C] (CH11 L chain expressed alone) (other)
light: DVVMTQSPLSLPVSLGDQASISCRSSKSLVHSNGNTYLHWYLQKPGQSPKLLIYKVSNRFSGVPDRFSGSGSGTDFTLKISRVEAEDLGVYFCSQSTHVPPAFGGGTKLEIKRADAAPTVSIFPPSSEQLTSGGASVVCFLNNFYPKDINVKWKIDGSERQNGVLNSWTDQDSKDSTYSMSSTLTLTKDEYERHNSYTCEATHKTSTSPIVKSFNRNEC
B6: 上清[F](pHEX126、pLEX004+pJEX004)に含まれる生産物 (recombinant CH11 H chain + L chain + J chain, COS-1 culture supernatant) (antibody)
heavy: EVQLQQSGPELVKPGASVKISCKASGYTFTDYNMHWVKQSHGKSLEWIGYIYPYNGGTGYNQKFKSKATLTVDNSSSTAYMELRSLTSEDSAVYYCARSYYAMDYWGQGTSVTVSSESQSFPNVFPLVSCESPLSDKNLVAMGCLARDFLPSTISFTWNYQNNTEVIQGIRTFPTLRTGGKYLATSQVLLSPKSILEGSDEYLVCKIHYGGKNRDLHVPIPAVAEMNPNVNVFVPPRDGFSGPAPRKSKLICEATNFTPKPITVSWLKDGKLVESGFTTDPVTIENKGSTPQTYKVISTLTISEIDWLNLNVYTCRVDHRGLTFLKNVSSTCAASPSTDILTFTIPPSFADIFLSKSANLTCLVSNLATYETLNISWASQSGEPLETKIKIMESHPNGTFSAKGVASVCVEDWNNRKEFVCTVTHRDLPSPQKKFISKPNEVHKHPPAVYLLPPAREQLNLRESATVTCLVKGFSPADISVQWLQRGQLLPQEKYVTSAPMPEPGAPGFYFTHSILTVTEEEWNSGETYTCVVGHEALPHLVTERTVDKSTGKPTLYNVSLIMSDTGGTCY
light: DVVMTQSPLSLPVSLGDQASISCRSSKSLVHSNGNTYLHWYLQKPGQSPKLLIYKVSNRFSGVPDRFSGSGSGTDFTLKISRVEAEDLGVYFCSQSTHVPPAFGGGTKLEIKRADAAPTVSIFPPSSEQLTSGGASVVCFLNNFYPKDINVKWKIDGSERQNGVLNSWTDQDSKDSTYSMSSTLTLTKDEYERHNSYTCEATHKTSTSPIVKSFNRNEC
chain: DDEATILADNKCMCTRVTSRIIPSTEDPNEDIVERNIRIVVPLNNRENISDPTSPLRRNFVYHLSDVCKKCDPVEVELEDQVVTATQSNICNEDDGVPETCYMYDRNKCYTTMVPLRYHGETKMVQAALTPDSCYPD

What was measured:
[1] = target: T1, Fas抗原 on the human lymphocyte cell line …; assay: cell-based or functional assay
[2] = target: ヒトFas抗原の細胞外領域とマウスインターロイキン3受容体の細胞外領域との融合タンパク質 (fusion of human Fas extracellular region and mouse IL-3 receptor extracellular region, from phFas-AIC2) (human; mouse) (UniProt P25445); assay: ELISA, COS-1 supernatant with human Fas-mouse IL-3 receptor fusion coated, detection with peroxidase-labelled rat anti-mouse IgM; PBS blank 0.104

Binder	ED 50 (ng/ml) (MTT assay, HPB-ALL cells)) [1]	OD 405 −OD 492 [2]	OD 590 −OD 620 (MTT assay, HPB-ALL cells, 12 h; higher = more living cells) [1]	cytotoxic activity relative to CH11 or to the product of supernatant [F] [1]
B1	21.2 ng/mL	0.445	–	–
B2	–	0.107	0.883	–
B3	–	0.109	0.876	–
B4	4.5 ng/mL	0.33	0.176	~5 fold
B5	–	0.135	0.887	–
B6	22.9 ng/mL	0.202	0.242	–
